# Test results: PMC4854415, “The Human Sodium-Glucose Cotransporter (hSGLT1) Is a Disulfide-Bridged Homodimer with a Re-Entrant C-Terminal Loop” (PLoS ONE, 2016)
# B1: wt myc-tagged human sodium-glucose cotransporter 1 (hSGLT1) (natural protein, UniProt P13866 1-664, looked up)
# chain: MDSSTWSPKTTAVTRPVETHELIRNAADISIIVIYFVVVMAVGLWAMFSTNRGTVGGFFLAGRSMVWWPIGASLFASNIGSGHFVGLAGTGAASGIAIGGFEWNALVLVVVLGWLFVPIYIKAGVVTMPEYLRKRFGGQRIQVYLSLLSLLLYIFTKISADIFSGAIFINLALGLNLYLAIFLLLAITALYTITGGLAAVIYTDTLQTVIMLVGSLILTGFAFHEVGGYDAFMEKYMKAIPTIVSDGNTTFQEKCYTPRADSFHIFRDPLTGDLPWPGFIFGMSILTLWYWCTDQVIVQRCLSAKNMSHVKGGCILCGYLKLMPMFIMVMPGMISRILYTEKIACVVPSECEKYCGTKVGCTNIAYPTLVVELMPNGLRGLMLSVMLASLMSSLTSIFNSASTLFTMDIYAKVRKRASEKELMIAGRLFILVLIGISIAWVPIVQSAQSGQLFDYIQSITSYLGPPIAAVFLLAIFWKRVNEPGAFWGLILGLLIGISRMITEFAYGTGSCMEPSNCPTIICGVHYLYFAIILFAISFITIVVISLLTKPIPDVHLYRLCWSLRNSKEERIDLDAEEENIQEGPKETIEIETQVPEKKKGIFRRAYDLFCGLEQHGAPKMTEEEEKAMKMKMTDTSEKPLWRTVLNVNGIILVTVAVFCHAYFA
# notes: human sodium-glucose cotransporter 1 (hSGLT1), wild type; Dimer held by a disulfide bridge between the C355 residues of two molecules, by non-reducing western blot; also called wt hSGLT1; wtSGLT1; source: Xenopus laevis oocytes injected with mRNA, total membrane preparation
# Target: the molecule itself
# Test: SDS-PAGE without reducing agent and western blot; total membrane preparation of oocytes expressing myc-tagged hSGLT1, 7.5 or 10% polyacrylamide gel, absence of β-Mercaptoethanol, detected with α-c-myc
protein,measurement,value
B1,stoichiometry N,2
